Results published in the DeepSol protein solubility set.

Experiment: soluble on expression in E. coli; label from the status in PepcDB or PDB records

| Sequence | soluble on expression in E. coli |
| --- | --- |
| MGSDKIHHHHHHMRKVVEVSGVRKSFGELRVLDKVDFYAEEGDFKVIVGENGSGKSTLLKIMIGLLLPDDGEVKVLGVDVKKHWKKLSARIGVVLANERSLYWKLTAWENLDIFGGVYGVPKKVRRERMEELLKRFGLFEYKDKPVEEFSTGMRKKLMICKALIHDPEVLFIDEILNGLDPPSVREMVGFLDERNRRGLTIVMISHVLHVLPENACVVLLRNGRVQMEVRYKDIRSERSEVYEVFENLIRGRNMDEEDTPSGSEGDEDKA | not soluble |
| MGSDKIHHHHHHMRLIGLTDLHNRIINFDKLLRYKPDAILISGDFTKCSFAKSANQNDSFEVITEQDTRIIDFLENLNNKIKVFIIPGNWENLDTIQKMNESGLNIDEKLVKFHDTIFIGLGGSNKTPICSPNEYSEDEIYERFIKILKNEKTDVKNNFILLSHVPPKDTMADRCEAGHVGSSAVRKIIEEFKPVLCACGHVHESRSIDKIGNTLIVNPSSTGFFIYDTKTKNLEIHDL | not soluble |
| MGSDKIHHHHHHMRLPPLKALPVFEAAARLNSFSAASEELAITQSAVSHQIKQLETYLGERLFWRSGRRVTLTDEGRQYFDAIGSALLQIERASEQLLGHEESRLRLSVFSSFAVRWLVPRLPDLQRLHPQIDLALEMSSENPVLSDRVADCFITIHRDSRAYSYDLLYEERLFPVCSQDYWQRMRRELGRDVEPERRDEQPVSPGEMAGFPLLSTHSIFDRPAGDWEAWYSAAGELMPTGTRVQHFSHMLLALEAARFHQGIALTNDYMLSTRKDSEDFVRLPTHSVVTGDKFYFAWKTSRRRERGIQTLRRWLVDEAIRGGLRGE | not soluble |
| MGSDKIHHHHHHMRRQLNGQMFVWLHVFACAARHLSFTRCAEELHITPGAVSQQMRQLEERLGYRLFLRRARGVELSAEGQRLAQTVAEAYGSIEAELLRLDAGEIRGTLRVRSIPSFLAKWLTPRLPRFQQRYPDIELRLVAEDSAQALTPGDFDLAIDLNDGSYPGMLSTPLLDEQIFPVCSPALLRGRPPLHGPADLAHYPLLHDITAWRGSSEYAEWEFYLEGIGAAGLDVRRGHTFNRNHLTIEAAIAGIGVAIARRTLLNDELERGALIVPFGVPIANHKRYVVHYPPGGLNQPGARAVHDWLVEEARGFRVLHPLNKE | not soluble |
| MGSDKIHHHHHHMRRSSVFAGSDGQLDLFVGAGSNIAARDAQDLMAWPFFSLAKTKRVRPIDFRMGEVSILVEATAEHGMATIWDADVLIWVASQIVEARDCGRSTSRLIAATPHEILSFTRRGTGKASYERLKAGLDRLQSTTVATSIRQPHQRRRHRFSWINEWRECLDSSGRALGIEMIVPDWFYEGVLDAALVLTIDRAYFGLTGGLERWLYRIVRKHGGKQKGGWSFDVAHLHLKSGALSPLKRFAFELRDIVRRQPLPGYRLELEHALGRERLSFVCIPEDSFDAAMRRLGYSGVDNP | not soluble |
| MGSDKIHHHHHHMRSLSEFIENSQDKREIQRALAVKMLLEGYTHVAIQSILDVSSGFISKWKKAFFTFGVEGLKLRYKGSQGFLNPQQRYCVIEWLKTKEKWNLSELEYEIASSYGVVFESKQSYYDLFDAAGISWKKTQAHNPKYDEELVASKKKEICELLETRRSEIESGKLVVFMVDECHLLWGDICGYVWGKTSERISVPVVNARDKQTYFGAIDYKTHEFITYAAKKGDSQNMINFLEYLQSQRPGANLLIIWDGASYHRSNAIQDYLDSLNRQLEQEQWLITCKRFAPNAPQQNPVEDIWLQAKKLIREFYFFCHSFSVVKALFELAVNGQIFDFPKLNEYGNFSQMI | not soluble |
| MGSDKIHHHHHHMRTPVPRVAAIHDLSGFGRTSLTVAMPVLSSMGVQVCPLPTAVLSTHTSGFENFSFVDLTEQMHSILDHWQSLNLKFDAVYSGFLGSPEQVDIVARCIDMFRTPDGLAVVDPVMGDNGEMEPTMTLEMVHRMRWLVTKADIITPNFTEAAFLLDEKYTTEATVSTVKDWLRRLTAMGPSIAIITSVPVHGDERRSAVMAYNRRHDRFWKVDCSYIPAHYPGTGDTFASVVTGALLQGDSLPIAMDRAVQFVTMGIRATFGHNLPSRDGILLERVLDTLRAPVTSSSFELLDNDGEQCACR | not soluble |
| MGSDKIHHHHHHMRVDHSTQPVAVLQEPSIVLVIQGVKRAYIGKDIFKFQQGQCLFISIAIPFDCDTLVEREPMLAIAIKFEPQMMAELATKMDKEHRPLIEDFDNKEIKLSCGLNIIEMNSVISDVALRLLNLLRSKQDTAILGEQVKRELIYRVLQAGGSDFIQNLSAIMSRSGVIYTICEIIQRDYYRNLTVQELAKQAGMSVSLFHQAFKKVTNYSPLQYIKITRLHKARDLILNNQMGVAEAAYEVGYVSASQFSREFKRLFGVPPKLSTN | not soluble |
| MGSDKIHHHHHHMRVLPFLLPLIPVLLATTITDLPELVVVTVATENTDGLKRLLESAKAFDINIEVLGLGEKWNGGDTRIEQGGGQKIRILSDWIEKYKDASDTMIMFVDAYDVVFNADSTTILRKFFEHYSEKRLLFGAEPFCWPDQSLAPEYPIVEFGKRFLNSGLFMGYGPEMHKILKLKSVEDKDDDQLYYTMIYLDEKLRKELNMDLDSMSKIFQNLNGVIEDVELQFKEDGTPEAYNAAYNTKPLIVHGNGPSKSHLNYLGNYLGNRWNSQLGCRTCGLEVKESEEVPLIALNLFISKPIPFIEEVLQKIAEFDYPKEKIALYIYNNQPFSIKNIQDFLQKHGKSYYTKRVINGVTEIGDREARNEAIEWNKARNVEFAFLMDGDAYFSEPKVIKDLIQYSKTYDVGIIAPMIGQPGKLFTNFWGAIAANGYYARSEDYMAIVKGNRVGYWNVPFITSAVLFNKEKLEAMKDAYSYNKNLDPDMSMCKFARDNGHFLYIDNEKYYGFLIVSDEYAETVTEGKWHPEMWQIFENRELWEARYIHPGYHKIMEPEHVVDQACPDVYDFPLMSERFCEELIEEMEGFGRWSDGSNNDKRLAGGYENVPTRDIHMNQVGFERQWLYFMDTYVRPVQEKTFIGYYHQPVESNMMFVVRYKPEEQPSLRPHHDASTFSIDIALNKKGRDYEGGGVRYIRYNCTVPADEVGYAMMFPGRLTHLHEGLATTKGTRYIMVSFINP | not soluble |
| MGSDKIHHHHHHMRYDIVIIGGAIVGSSIAYYLREEGFSGSIALIERDPQFAHAATTLSMASIRQQFSIPENIRLSQFTLKLFRRLKETFGTDADIGFREGGYLILAGENGLPVLKANHDAQVAEGADIVLEDAEQLTRRFAWLSAEGISAGAYGRTGEGWFDAHAMLMLFRKALRDKKIDFIAASVTGIARDGDRVTGVSLDNGQTLEAGIVVNAAGPNAGKVAALAGLALPVEPRKRNVFVFEAREKYADMPLLVDPSGIYVRPEGSVYLTGGAEPEEGDGPADPSDFEVDWPLFEEVIWPVLATRIPAFEAIKATRAWAGHYDYNTLDQNAVIGPHPEVGNFIFANGFSGHGLQQAPAVGKALAEFLVHGGYRTIDCSAFGYGRVAEGRAFRELNVI | not soluble |
| MGSDKIHHHHHHMRYSPESLLAFITTVDAGSFSAAARRLHKSQSTISAAIANLEADLGLTLFDRAGHQPVLTLAGRKVLSHVQAILSASEELDELAIRLADHIEPRLTFVLSDIWQATHYEPVIQRFAHNFPDIEFECLVAEGDDVIDLLQMDRAHVGLLRAQTDYPPDIAAARLQVKTEMAVFVSVAHPLATEKTVTRSQLATVRQLYLNTYKRSDRLQPEGIVWSAPSYLMLLEMAQQGHGWSSLPRWLVAQYDRQKLVELPVSGWPQWIDVDVVWSKPHPPGPAGLWMIDNLLAQQESTPP | not soluble |
| MGSDKIHHHHHHMSCLVLPLVSVGNIPQLSIDWLLNSQANEWEYLEALDSKYLVEFVGPLDRPEDGSDSLYKDADMKYSSALEVFYNKKRGLFAIQQRTPLVSVNYLNNFIVEIILPFLSKYNISEICIWDSLYAMEDENGVIVRPQEVYSLGEFYFDDEAELLSNLHLNDQESMVNNWLHFTPTSFQDKISVDQPIFKILFQILNASQRPKALRSIKYCSCLANEGDNSLDSQQFLQWIISQKVIKNAPPIVKFVRPISWQGAYGMADARDKFVDLYN | not soluble |
| MGSDKIHHHHHHMSEGCAFAYPFIFVGANMKKIAFIGECMIELNGKPFGEMWQSYGGDTLNSATYLSRMSSPNDIQVYYVSALGSDNLSEQMRMHWQADGVNTDWVLKDENHQPGLYLIQLDEQGERTFLYWRNQSAAHYMVQHHDFSQVLSALEQVDMIYLSGISLAILPKNDRTFLLEQLIKLAKKGVQISFDSNFRPKLWDSFQEAQDCYLQLLPCVSLALVTFDDEQLLWNDTNEPATLTRLHQIGIPKVVVKCGRNGAIFSDSQTSQYGQVVPKPISNVVDTTSAGDSFNAGFLNGYLRNKPLDICCRQGNYVAGIVIQHKGAIIDKHATSHLQSEFN | not soluble |
| MGSDKIHHHHHHMSEHLTLPTNKPQVTHFSSGPCAKHPGWSVSNLENACLGRSHRSEDGKAKLSEVIERSKQILGLPADYRLGIVPASDTGAVEMALWSLLGQRPLDILAWESFGQEWVKDVVDELKLPDVRLLKAPYGGLPNLDEVDFSHDVVFLWNGTTSGVRVPNGDWIKDDRQGLTICDATSAVFAMDIPWEKIDVLTYSWQKVLGGEAQHGVIVLSPRAVERLQTYEPAWPIPKIFRLSQKGKLIEGIFKGDTINTPSMLCVEDALDALIWAESVGGLPGLISRSEANLAAIAQWVKQSNWADFLAEKPETRSCTSICLKIVDAAFASLSAEDQGKFAKKLAKLLEKQQVAYDIAPYRAAPPGLRIWGGATVETADIEALLPWLDWAYANVKAEFVPVA | not soluble |
| MGSDKIHHHHHHMSEIETIQAYYAASLGKDGRITRTQRQILAAALDLFAEKGYEEVGTREIAERAGVAEGTLFHNFVNKNGILDAIMQPIVQNILPTMLNTLDQAVLDSPNQTLQAFVVALVRDRVAFVTRNRASLAVILSQFFNNAQDRAAVLGMVSPSILAQANEAMDRLKAARELVDWPNRMILQLVFSTIGGYLVEQVLYPQLDDLSDEQLIHYLSDFLVNGLSPRRIPLQDDNTAS | not soluble |
| MGSDKIHHHHHHMSFEVTFDGMRYSCVNCAYCCSCKNWRVFLSYFDMMRLKGYENYIEKSNSNYEHVLALRNGKCGLIENNLCRIQLEKSYDTKPAMCRLFPFSFMVKWNGDLLLILKHYCGGVQVGKCSKKTIKHAIECCEELYHDQLSEFSLDFAERSDKTSLNEKTEICWEERAELGKYFFKIKKFDSFSEKYSEIFSEDISDSIEKLKSKNSCFDEKTQKLREKETLRYMYELNKREHFRKMSFKKELDNLINVGIIIDDYKDLLKGEGAVDSKLLLN | not soluble |
| MGSDKIHHHHHHMSFFNKIILIGRLVRDPEERYTLSGTPVTTFTIAVDRVPRKNAPDDAQTTDFFRIVTFGRLAEFARTYLTKGRLVLVEGEMRMRRWETPTGEKRVSPEVVANVVRFMDRKPAETVSETEEELEIPEEDFSSDTFSEDEPPF | soluble |
| MGSDKIHHHHHHMSFSMLRAALVLGSIGCAFSPQVNAKLNPLTVQIQPLAQSKLLLDLANAGDQLIAVGQRGHVLVYDKSWIQVPTPVLSQLTKVFFLDAKLGWAVGHDASIIHTQDGGQTWQLQMQSREIEKPFLDIRFFNANEGIAIGAYGLFYRTLDGGKTWEPEFHEELLFEEDVSYLAELKAEDEALYLSERAALLPHFNRIIRLNDSRLLLVGELGLVAESKDNGKHFTRTDFDYDGSMFNAIQVGEQIYVMGLRGHVFKTDLSLSDWQQVELPVKSSINGALVHKGELYIVGNAGVVLRLDGKGHAEIVARRQGENIVAVAESADKQLWFAGSNGLFQLK | not soluble |
| MGSDKIHHHHHHMSFSNEMKVFSGNANRPLAEKIANYLNLQLGDCEVGRFADGEINVRINETVRGHDIFLIQPTSPPVNENLMELLIMIDAFKRASANTIAVVIPYYGYARQDRKAKGRDPISAKLVANLITVAGATRVLTVDLHAEQIQGFFDIPVDNLWSYPVFAEELLKRENIVPEETVVVSPDVGGVRRARRMAERLGTSLAILDKRRPSDNVAEVVNIIGEVEDKVVIMFDDIIDTAHSIVKGAEALKNAGAKRIIACATHGVFSDRALERIENSSIDTVYITDTIYHENLPEKVKVISVANLIGEAIMRIRKHLSVSTLFR | not soluble |
